Results taken from US8598314B2 (priority 2007, dated 2013).
Entries after “also recorded” stand apart in the source; their conditions may differ. Where two headings read alike, the source gives them in different places.

Columns and labels:
Recombinant DPP-IV = Recombinant DPP-IV (Homo sapiens, UniProt P27487); experiment: DPP-IV resistance assay by mass spectrometry
Procedure: The peptides were then desalted and concentrated on a C18 peptide micro trap (Michrom Bioresources, Inc., Auburn, Calif.) prior to introduction to a LTQ FT™ mass spectrometer (Thermo-Electron Corp., Waltham, Mass.) via an autosampler (Michrom Bioresources, Inc.). Peptides were eluted from a C5 packed 75 μm fused silica pico-frit column (New Objective, Inc., Woburn, Mass.) using a 5-60% acetonitrile/water gradient over 50 minutes at a flow rate of 500 nl/min. Extracted ion mass windows for the calculated m/z values of the most dominant charge states were used to search for both the parent compound and the theoretical hydrolyzed products within a given chromatogram. Exact mass was confirmed for each charge state by FT. The percentage of hydrolysis catalyzed by DPP-IV was estimated by dividing the area of product ions by the area of the total (parent+product) ions.
The estimated cleavage product conversion is based on the ratio of the ion extract area (indicated on top of the peaks) for [product ion]^5+ over that for total ions ([Mother Ion]^5++[product ion]^5+). The m/z ratios used to search for the expected ions are listed on the right side of the plots.

[1] = in vivo; cited from earlier work
NIH/Swiss mice = experiment: Oral glucose tolerance test (OGTT), glucose lowering; format: in vivo; conditions: IP injection, 2 hour fasted NIH/Swiss mice, FIGS. 5 and 6
Procedure: . Test compounds were injected IP (t=0 min) immediately following baseline measurements of 2 hour fasted NIH/Swiss mice. Blood samples were taken at 60, 120, and 180 minutes after injection. In some assays, samples were also taken at 240 minutes after the injection. Blood glucose was measured with a One-Touch® Ultra® glucose meter (LifeScan, Inc., Milpitas, Calif.). […].
The tests were performed as described in Example 5.

in vitro = conditions: human, kidney or brush border membranes, pH 7.4
Procedure: The tubes were incubated in VorTemp 56™ (Eurotech Labs, UK) at 37° C. vortexed at 500 RPM. At time points of 0, 1, 2, 3, 4, and 5 hours, 200 μl STOP solution (50% ACN, 1% formic acid) was added to a given tube, and the samples were allowed to incubate until the end of the experiment. The samples were collected after 5 hours, centrifuged, and 200 μl of the supernatants were transferred into mass spectrometry vials. The intensities of the mother ions in each vial were analyzed with API 150EX™ mass spectrometer (Applied Biosystems, Foster City, Calif.) and quantified using the ANALYST™ program.
The hKBBM assay was also performed in the presence of valinepyrrolidide, a DPP-IV inhibitor.

Sequence of Recombinant DPP-IV (P27487 whole entry, species assumed, the tested form may be a part): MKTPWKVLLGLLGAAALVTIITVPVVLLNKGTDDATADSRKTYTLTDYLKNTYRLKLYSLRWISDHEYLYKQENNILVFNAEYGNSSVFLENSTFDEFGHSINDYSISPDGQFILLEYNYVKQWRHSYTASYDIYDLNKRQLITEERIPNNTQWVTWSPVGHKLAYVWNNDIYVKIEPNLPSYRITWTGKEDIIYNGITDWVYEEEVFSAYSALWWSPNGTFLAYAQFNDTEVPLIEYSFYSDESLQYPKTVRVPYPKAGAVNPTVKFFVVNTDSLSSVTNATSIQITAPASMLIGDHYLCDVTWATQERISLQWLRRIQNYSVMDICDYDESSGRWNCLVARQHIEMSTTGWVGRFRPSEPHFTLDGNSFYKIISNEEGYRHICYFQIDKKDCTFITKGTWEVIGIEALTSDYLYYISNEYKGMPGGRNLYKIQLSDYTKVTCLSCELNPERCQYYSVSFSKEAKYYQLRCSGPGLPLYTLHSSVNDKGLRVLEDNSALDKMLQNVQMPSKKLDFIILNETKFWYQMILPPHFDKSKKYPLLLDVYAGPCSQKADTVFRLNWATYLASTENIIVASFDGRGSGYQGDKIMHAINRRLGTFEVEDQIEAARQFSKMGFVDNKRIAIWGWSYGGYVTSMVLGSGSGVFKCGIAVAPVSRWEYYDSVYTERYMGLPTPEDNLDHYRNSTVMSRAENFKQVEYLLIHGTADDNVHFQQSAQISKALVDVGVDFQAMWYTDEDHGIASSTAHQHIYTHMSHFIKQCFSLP

Structure (SMILES): CC[C@H](C)[C@H](NC(=O)[C@H](Cc1ccccc1)NC(=O)[C@H](CCC(=O)O)NC(=O)[C@H](CCCCN)NC(=O)[C@H](C)NC(=O)[C@H](C)NC(=O)[C@H](CCC(N)=O)NC(=O)CNC(=O)[C@H](CCC(=O)O)NC(=O)[C@H](CC(C)C)NC(=O)[C@H](Cc1ccc(O)cc1)NC(=O)[C@H](CO)NC(=O)[C@H](CO)NC(=O)[C@@H](NC(=O)[C@H](CC(=O)O)NC(=O)[C@H](CO)NC(=O)[C@@H](NC(=O)[C@H](Cc1ccccc1)NC(=O)[C@@H](NC(=O)CNC(=O)[C@H](CCC(=O)O)NC(=O)[C@H](C)NC(=O)[C@@H](N)Cc1c[nH]cn1)[C@@H](C)O)[C@@H](C)O)C(C)C)C(=O)N[C@@H](C)C(=O)N[C@@H](Cc1c[nH]c2ccccc12)C(=O)N[C@@H](CC(C)C)C(=O)N[C@H](C(=O)N[C@@H](CCCCN)C(=O)NCC(=O)N[C@@H](CCCNC(=N)N)C(=O)NCC(=O)NCC(=O)NCC(=O)NCCCC[C@H](N)C(=O)N1CCSC1C#N)C(C)C (stereo partly drawn) [Compound 4845, GLP-1(7-37)-GG-(S)-2,6-diamino-1-(thiazolidin-2-cyano-3-yl)hexan-1-one amide]
- DPP-IV resistance (in words) (Recombinant DPP-IV): expected product ions were not observed

Structure (SMILES): CC[C@H](C)[C@H](NC(=O)[C@H](Cc1ccccc1)NC(=O)[C@H](CCC(=O)O)NC(=O)[C@H](CCCCN)NC(=O)[C@H](C)NC(=O)[C@H](C)NC(=O)[C@H](CCC(N)=O)NC(=O)CNC(=O)[C@H](CCC(=O)O)NC(=O)[C@H](CC(C)C)NC(=O)[C@H](Cc1ccc(O)cc1)NC(=O)[C@H](CO)NC(=O)[C@H](CO)NC(=O)[C@@H](NC(=O)[C@H](CC(=O)O)NC(=O)[C@H](CO)NC(=O)[C@@H](NC(=O)[C@H](Cc1ccccc1)NC(=O)[C@@H](NC(=O)CNC(=O)[C@H](CCC(=O)O)NC(=O)[C@H](C)NC(=O)[C@@H](N)Cc1c[nH]cn1)[C@@H](C)O)[C@@H](C)O)C(C)C)C(=O)N[C@@H](C)C(=O)N[C@@H](Cc1c[nH]c2ccccc12)C(=O)N[C@@H](CC(C)C)C(=O)N[C@H](C(=O)N[C@@H](CCCCN)C(=O)NCC(=O)N[C@@H](CCCNC(=N)N)C(N)=O)C(C)C [GLP-1, reference compound]
- metabolic clearance rate [1]: 12 to 13 min

Structure (SMILES): CC[C@H](C)[C@H](NC(=O)[C@H](Cc1ccccc1)NC(=O)[C@H](CCC(=O)O)NC(=O)[C@H](CCCCN)NC(=O)[C@H](C)NC(=O)[C@H](C)NC(=O)[C@H](CCC(N)=O)NC(=O)CNC(=O)[C@H](CCC(=O)O)NC(=O)[C@H](CC(C)C)NC(=O)[C@H](Cc1ccc(O)cc1)NC(=O)[C@H](CO)NC(=O)[C@H](CO)NC(=O)[C@@H](NC(=O)[C@H](CC(=O)O)NC(=O)[C@H](CO)NC(=O)[C@@H](NC(=O)[C@H](Cc1ccccc1)NC(=O)[C@@H](NC(=O)CNC(=O)[C@H](CCC(=O)O)NC(=O)[C@H](C)NC(=O)[C@@H](N)Cc1c[nH]cn1)[C@@H](C)O)[C@@H](C)O)C(C)C)C(=O)N[C@@H](C)C(=O)N[C@@H](Cc1c[nH]c2ccccc12)C(=O)N[C@@H](CC(C)C)C(=O)N[C@H](C(=O)N[C@@H](CCCCN)C(=O)NCC(=O)N[C@@H](CCCNC(=N)N)C(=O)NCC(=O)NCC(=O)NCC(=O)NCCCC[C@H](N)C(=O)N1CCSC1)C(C)C [Compound 4844, GLP-1(7-37)-GG-(S)-2,6-diamino-1-(thiazolidin-3-yl)hexan-1-one amide]
- DPP-IV resistance (in words) (Recombinant DPP-IV; treated with 0.1 mU DPP-IV): expected product ions were not observed

Structure (SMILES): CC[C@H](C)[C@H](NC(=O)[C@H](Cc1ccccc1)NC(=O)[C@H](CCC(=O)O)NC(=O)[C@H](CCCCN)NC(=O)[C@H](C)NC(=O)[C@H](C)NC(=O)[C@H](CCC(N)=O)NC(=O)CNC(=O)[C@H](CCC(=O)O)NC(=O)[C@H](CC(C)C)NC(=O)[C@H](Cc1ccc(O)cc1)NC(=O)[C@H](CO)NC(=O)[C@H](CO)NC(=O)[C@@H](NC(=O)[C@H](CC(=O)O)NC(=O)[C@H](CO)NC(=O)[C@@H](NC(=O)[C@H](Cc1ccccc1)NC(=O)[C@@H](NC(=O)CNC(=O)[C@H](CCC(=O)O)NC(=O)[C@H](C)NC(=O)[C@H](Cc1c[nH]cn1)NC(=O)COCCOCCNC(=O)COCCOCCNC(=O)[C@@H]1CCCN1C(=O)[C@H](C)NC(CCc1ccccc1)C(=O)O)[C@@H](C)O)[C@@H](C)O)C(C)C)C(=O)N[C@@H](C)C(=O)N[C@@H](Cc1c[nH]c2ccccc12)C(=O)N[C@@H](CC(C)C)C(=O)N[C@H](C(=O)N[C@@H](CCCCN)C(=O)NCC(=O)N[C@@H](CCCNC(=N)N)C(N)=O)C(C)C (stereo partly drawn) [Compound 4984, (R,S)-1-[N^2-(1-carboxy-3-phenylpropyl)-L-ala]-L-pro-8-amino-3,6-dioxaoctanoyl-8-amino-3,6-dioxaoctanoyl-GLP-1-(7-36) amide]
- glucose lowering in OGTT (in words) (NIH/Swiss mice): enhance glucose-lowering action compared to GLP-1; also recorded: prolonged effect 4 hours after dosing
- remaining at 4 h (in vitro): > 80%
